US20250218531A1 (ABSCI, published 2025)
Substitutions are numbered along the chain they refer to.

B1: Trastuzumab HCDR3 variant ATYSTYYNYAFGI (Fab, V domains shown)
VH: EVQLVESGGGLVQPGGSLRLSCAASGFNIKDTYIHWVRQAPGKGLEWVARIYPTNGYTRYADSVKGRFTISADTSKNTAYLQMNSLRAEDTAVYYCATYSTYYNYAFGIWGQGTLVTVSS
VL: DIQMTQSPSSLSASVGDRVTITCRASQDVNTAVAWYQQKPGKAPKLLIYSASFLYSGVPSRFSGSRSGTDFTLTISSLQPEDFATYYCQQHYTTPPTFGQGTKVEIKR
B2: Trastuzumab HCDR3 variant ASYGLDGYYYFDV (Fab, V domains shown)
VH: B1 VH with T98S, S100G, T101L, Y102D, Y103G, N104Y, A106Y, G108D, I109V
VL: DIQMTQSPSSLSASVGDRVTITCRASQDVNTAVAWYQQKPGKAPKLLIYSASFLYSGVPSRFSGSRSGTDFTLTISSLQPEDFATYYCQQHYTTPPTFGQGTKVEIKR
B3: Trastuzumab HCDR3 variant TRYGYGGPYWFDY (Fab, V domains shown)
VH: B1 VH with A97T, T98R, S100G, T101Y, Y102G, Y103G, N104P, A106W, G108D, I109Y
VL: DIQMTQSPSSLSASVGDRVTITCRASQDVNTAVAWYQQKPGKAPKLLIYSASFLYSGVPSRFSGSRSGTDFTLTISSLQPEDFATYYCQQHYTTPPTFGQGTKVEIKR
B4: Trastuzumab HCDR3 variant TRYLHDYYYYFDY (Fab, V domains shown)
VH: B1 VH with A97T, T98R, S100L, T101H, Y102D, N104Y, A106Y, G108D, I109Y
VL: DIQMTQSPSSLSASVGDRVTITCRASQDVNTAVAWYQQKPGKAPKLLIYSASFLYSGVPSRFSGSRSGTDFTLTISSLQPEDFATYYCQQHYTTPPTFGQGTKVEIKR
B5: Trastuzumab HCDR3 variant ARYYGYGGYYMDY (Fab, V domains shown)
VH: B1 VH with T98R, S100Y, T101G, Y103G, N104G, A106Y, F107M, G108D, I109Y
VL: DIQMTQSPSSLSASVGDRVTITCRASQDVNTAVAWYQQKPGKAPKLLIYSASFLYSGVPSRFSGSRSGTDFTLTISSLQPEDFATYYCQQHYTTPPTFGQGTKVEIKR
B6: Trastuzumab HCDR3 variant TRYYYYGSYHFDY (Fab, V domains shown)
VH: B1 VH with A97T, T98R, S100Y, T101Y, Y103G, N104S, A106H, G108D, I109Y
VL: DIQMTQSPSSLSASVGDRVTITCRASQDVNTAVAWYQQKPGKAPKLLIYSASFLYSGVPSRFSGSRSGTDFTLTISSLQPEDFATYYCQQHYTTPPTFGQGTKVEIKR
B7: Trastuzumab HCDR3 variant TRNYYDYYYYFDY (Fab, V domains shown)
VH: B1 VH with A97T, T98R, Y99N, S100Y, T101Y, Y102D, N104Y, A106Y, G108D, I109Y
VL: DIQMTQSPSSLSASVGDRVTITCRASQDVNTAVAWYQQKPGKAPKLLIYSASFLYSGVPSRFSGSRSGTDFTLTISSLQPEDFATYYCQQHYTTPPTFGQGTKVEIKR
B8: Trastuzumab HCDR3 variant VRYFYDGNYYFDL (Fab, V domains shown)
VH: B1 VH with A97V, T98R, S100F, T101Y, Y102D, Y103G, A106Y, G108D, I109L
VL: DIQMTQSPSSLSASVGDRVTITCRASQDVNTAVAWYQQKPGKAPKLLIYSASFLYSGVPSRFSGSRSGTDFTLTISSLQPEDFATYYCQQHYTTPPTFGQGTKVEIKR
B9: Trastuzumab HCDR3 variant TRYFFNGWYYFDV (Fab, V domains shown)
VH: B1 VH with A97T, T98R, S100F, T101F, Y102N, Y103G, N104W, A106Y, G108D, I109V
VL: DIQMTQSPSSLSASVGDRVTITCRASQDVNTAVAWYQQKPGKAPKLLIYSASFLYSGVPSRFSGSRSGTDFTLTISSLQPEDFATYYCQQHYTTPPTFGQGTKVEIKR
B10: Trastuzumab HCDR3 variant VRYGGWGFWYFDY (Fab, V domains shown)
VH: EVQLVESGGGLVQPGGSLRLSCAASGFNIKDTYIHWVRQAPGKGLEWVARIYPTNGYTRYADSVKGRFTISADTSKNTAYLQMNSLRAEDTAVYYCVRYGGWGFWYFDYWGQGTLVTVSS
VL: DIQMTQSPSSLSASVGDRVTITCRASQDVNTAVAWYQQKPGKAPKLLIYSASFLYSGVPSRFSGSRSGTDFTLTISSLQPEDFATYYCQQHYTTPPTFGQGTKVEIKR
B11: Trastuzumab HCDR3 variant SRYYAGGWYYFDY (Fab, V domains shown)
VH: B10 VH with V97S, G100Y, G101A, W102G, F104W, W105Y
VL: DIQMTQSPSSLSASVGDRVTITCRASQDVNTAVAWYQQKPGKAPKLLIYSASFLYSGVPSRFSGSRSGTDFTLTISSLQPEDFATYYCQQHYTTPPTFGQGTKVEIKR
B12: Trastuzumab HCDR3 variant TRYEYQDYYHFDY (Fab, V domains shown)
VH: B10 VH with V97T, G100E, G101Y, W102Q, G103D, F104Y, W105Y, Y106H
VL: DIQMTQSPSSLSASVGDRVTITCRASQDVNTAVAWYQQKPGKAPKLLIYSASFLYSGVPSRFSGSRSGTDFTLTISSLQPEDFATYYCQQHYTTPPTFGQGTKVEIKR
B13: Trastuzumab HCDR3 variant TRWLEGLSYFMDY (Fab, V domains shown)
VH: B10 VH with V97T, Y99W, G100L, G101E, W102G, G103L, F104S, W105Y, Y106F, F107M
VL: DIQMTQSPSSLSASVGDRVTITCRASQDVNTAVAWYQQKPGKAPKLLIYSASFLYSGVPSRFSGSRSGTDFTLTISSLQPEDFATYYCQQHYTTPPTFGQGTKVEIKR
B14: Trastuzumab HCDR3 variant TRYGGYGYYYMDY (Fab, V domains shown)
VH: B10 VH with V97T, W102Y, F104Y, W105Y, F107M
VL: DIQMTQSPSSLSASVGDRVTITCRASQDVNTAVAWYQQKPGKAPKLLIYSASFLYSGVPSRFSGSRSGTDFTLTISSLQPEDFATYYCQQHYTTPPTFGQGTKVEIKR
B15: Trastuzumab HCDR3 variant VRWGVGAYYNFDY (Fab, V domains shown)
VH: B10 VH with Y99W, G101V, W102G, G103A, F104Y, W105Y, Y106N
VL: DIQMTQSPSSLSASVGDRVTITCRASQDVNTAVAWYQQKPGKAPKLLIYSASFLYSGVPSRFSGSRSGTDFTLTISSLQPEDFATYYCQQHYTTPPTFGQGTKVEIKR
B16: Trastuzumab HCDR3 variant VRYGYGDYYYFDY (Fab, V domains shown)
VH: B10 VH with G101Y, W102G, G103D, F104Y, W105Y
VL: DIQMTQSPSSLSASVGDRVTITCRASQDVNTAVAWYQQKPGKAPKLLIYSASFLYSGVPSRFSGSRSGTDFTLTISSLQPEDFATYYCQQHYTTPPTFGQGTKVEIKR
B17: Trastuzumab HCDR3 variant VRYGSDVYYYFDI (Fab, V domains shown)
VH: B10 VH with G101S, W102D, G103V, F104Y, W105Y, Y109I
VL: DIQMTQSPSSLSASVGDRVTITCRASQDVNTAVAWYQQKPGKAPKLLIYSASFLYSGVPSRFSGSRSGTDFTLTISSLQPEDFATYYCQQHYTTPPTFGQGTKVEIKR
B18: Trastuzumab HCDR3 variant ARYYGYGGYWYDT (Fab, V domains shown)
VH: B10 VH with V97A, G100Y, W102Y, F104G, W105Y, Y106W, F107Y, Y109T
VL: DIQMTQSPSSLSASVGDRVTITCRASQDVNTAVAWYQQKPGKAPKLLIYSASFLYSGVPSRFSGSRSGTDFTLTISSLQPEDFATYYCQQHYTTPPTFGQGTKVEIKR
B19: Trastuzumab HCDR3 variant ARYYYDYYYYFDY (Fab, V domains shown)
VH: B10 VH with V97A, G100Y, G101Y, W102D, G103Y, F104Y, W105Y
VL: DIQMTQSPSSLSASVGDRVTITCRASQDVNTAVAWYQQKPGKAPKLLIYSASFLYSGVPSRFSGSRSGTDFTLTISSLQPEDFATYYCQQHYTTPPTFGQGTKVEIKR
B20: Trastuzumab HCDR3 variant TRYGSFHYYYFDV (Fab, V domains shown)
VH: B10 VH with V97T, G101S, W102F, G103H, F104Y, W105Y, Y109V
VL: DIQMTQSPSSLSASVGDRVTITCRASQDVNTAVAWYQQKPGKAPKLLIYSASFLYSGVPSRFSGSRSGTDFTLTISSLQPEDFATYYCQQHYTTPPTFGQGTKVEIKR
B21: Trastuzumab HCDR3 variant ARYYGYGGYYFDY (Fab, V domains shown)
VH: B10 VH with V97A, G100Y, W102Y, F104G, W105Y
VL: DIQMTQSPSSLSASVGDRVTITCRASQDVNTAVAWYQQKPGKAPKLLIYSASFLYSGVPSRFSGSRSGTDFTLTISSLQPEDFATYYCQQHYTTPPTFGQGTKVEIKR
B22: Trastuzumab HCDR3 variant VRYGFDGSYYFDP (Fab, V domains shown)
VH: B10 VH with G101F, W102D, F104S, W105Y, Y109P
VL: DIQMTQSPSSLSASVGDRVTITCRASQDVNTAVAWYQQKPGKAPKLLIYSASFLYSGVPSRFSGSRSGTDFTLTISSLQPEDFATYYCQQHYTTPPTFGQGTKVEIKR
B23: Trastuzumab HCDR3 variant TRYASGYFYAFDY (Fab, V domains shown)
VH: B10 VH with V97T, G100A, G101S, W102G, G103Y, W105Y, Y106A
VL: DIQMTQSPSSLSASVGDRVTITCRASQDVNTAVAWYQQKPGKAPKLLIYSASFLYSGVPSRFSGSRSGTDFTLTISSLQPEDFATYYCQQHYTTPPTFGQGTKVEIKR
B24: Trastuzumab HCDR3 variant AVTDLDGLHSYRY (Fab, V domains shown)
VH: EVQLVESGGGLVQPGGSLRLSCAASGFNIKDTYIHWVRQAPGKGLEWVARIYPTNGYTRYADSVKGRFTISADTSKNTAYLQMNSLRAEDTAVYYCAVTDLDGLHSYRYWGQGTLVTVSS
VL: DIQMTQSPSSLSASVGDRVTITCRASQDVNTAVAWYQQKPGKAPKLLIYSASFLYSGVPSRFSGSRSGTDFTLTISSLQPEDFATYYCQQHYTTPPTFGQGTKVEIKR
B25: Trastuzumab HCDR3 variant TRYRGPYYYYFDP (Fab, V domains shown)
VH: B10 VH with V97T, G100R, W102P, G103Y, F104Y, W105Y, Y109P
VL: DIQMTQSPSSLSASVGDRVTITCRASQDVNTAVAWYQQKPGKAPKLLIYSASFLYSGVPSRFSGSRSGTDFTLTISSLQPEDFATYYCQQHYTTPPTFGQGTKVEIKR

Biological target: T1, HER2 (human epidermal growth factor receptor 2) (human, UniProt P04626 23-629)
T1 construct: also called Antigen: HER2
Experiment: SPR

| Binder | Kd [nM] | log(KD (M)) |
| --- | --- | --- |
| B1 | 22.6 | -7.65 |
| B2 | 19.3 | -7.71 |
| B3 | 14.3 | -7.84 |
| B4 | 22.7 | -7.64 |
| B5 | 9.91 | -8 |
| B6 | 6.82 | -8.17 |
| B7 | 7.54 | -8.12 |
| B8 | 22.9 | -7.64 |
| B9 | 0.94 | -9.03 |
| B10 | 6.76 | -8.17 |
| B11 | 11.8 | -7.93 |
| B12 | 18.5 | -7.73 |
| B13 | 2.4 | -8.62 |
| B14 | 12 | -7.92 |
| B15 | 12.1 | -7.92 |
| B16 | 25.1 | -7.6 |
| B17 | 19.9 | -7.7 |
| B18 | 8.19 | -8.09 |
| B19 | 8.44 | -8.07 |
| B20 | 8.73 | -8.06 |
| B21 | 8.05 | -8.09 |
| B22 | 13.2 | -7.88 |
| B23 | 9.14 | -8.04 |
| B24 | 23.3 | -7.63 |
| B25 | 12.1 | -7.92 |
